Assay results published in the RNAGym collection of RNA variant scans (doi:10.1073/pnas.2313332121).

B1: TPR t1 (parent)
chain: GACCAAUCUGCCCUCAGAGCUCGAGAACAUCUUCGGAUGCAGAGGAGGCAGGCUUCGGUGGCGCGAUAGCGCCAACGUCCUCAACCUCCAAUGCAUCCCACCACAUGAUGAUGCCUGAAGAGCCUUGGUUUUUUG

Variants of: B1
Assay: polymerase ribozyme fitness, log enrichment relative to wild type (log ratio); higher = more active; in vitro selection for triplet polymerase activity
Method in brief: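 A single round of triplicate in vitro selection, including frozen incubation at −7 °C, was applied to PCR-built, transcribed mutant libraries of each subunit of a heterodimeric triplet polymerase ribozyme. Illumina sequencing of input and output libraries retained genotypes with ≥10 input reads and ≥1 read per output. Fitness is the base-2 logarithm of genotype enrichment divided by wild-type enrichment, from inverse-variance-weighted replicate averages.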

Variant | polymerase ribozyme fitness (log ratio)
C4U G58C C97G | -4.76
C4U U9C C34G A100U | -4.68
C4U C72A A100U | -1.48
A5U A29U C94U | -2.08
C4U G35C C72U G117C C123U U125A | -6.14
C4G G63U G120U G122U | -1.51
A5G C8U C72G G110A | -1.25
A5U A37G C72U | -0.735
C4U A43U U96A | -3.02
A5C G69U C72U C79A U92A | -3.86
C4U G35U C62U C98A C123G | -2.75
C4G G39U | -3.24
C4A G60A U78C | -2.08
C4G A90U A100C C124U U132C | -4.88
A5U C11G C56U | -0.378
A5U C11A C102A | -4.33
C4U A16G C49U G69A G71C U78G C82U A84U C115A | -6.51
C4U G19A G71A G120C | -3.53
C4G A18C | -3.16
A5U C56G C114U | -4.21
A5U A37U U55A C123A | 0.562
A5C C73G C102A | -3.71
A5U C64U | -0.49
C4G C64U | -2.5

Variant | polymerase ribozyme fitness (log ratio)
A5U A18G | -2.05
A5U A18U | -2.62
A5U C49A | -2.06
C4G C73A A91U | -3.63
C4G C124A | 0.669
A5C A50C U96G | -1.64
C4G U7G C13U G113A | -1.14
A5G A118U C123G | 2.09
C4G C8G A26G G71A G120U | -1.19
A5U G10A G36C G60C U78C C124U | -2.58
A5G C64G G69A A83U | -4.33
A5C A37C G60C C79U C123A | -0.023
A5U C40U G48A | -2.13
A5G U33A C124U | -3.02
C4A U55C | -2.5
A5C A37U G127U | -2.11
A5C A84G | -1.64
C4U C8G C34G A46U U59G C62U C102U G113U A121C U131G | -6.55
A5U G47A | -1.21
C4G A24C A100C U112A U116G | -5.42
A5C G17A C82A | -5.14
C4A G61A G127A | -2.92
C4G C13U C53U C115G A121U | 0.995
A5G G44A | -0.648

Variant | polymerase ribozyme fitness (log ratio)
A5G A18U G42U G52C G69C | -3.05
A5G C49U C73U | -0.864
A5C G17C G44A A83U G120A U131A | -4.99
A5C C8G A37U U38C A43C G57A G110A C124U | -5.51
A5U C72A | -0.164
C4U | -0.513
C4G | -1.33
C4G U38A A95U G127C | -0.148
A5G C49G G127C G128A | -2.99
C4A G61C C79G | -3.95
C4G C11U C13U G47U C72G | -5.03
C4G C12A C15A C94A C99U G110C | -6.59
A5C C62U C85U C123A | -1.09
A5C A24G A27G | -4.69
A5C C76U | -0.646
A5C C28A G47U C53G G93U | -7.47
A5C U7G U54A C72U G110C | -4.62
C4U G42C G60U C88G C99G A111U U134A | -5.4
A5U G60U | -0.228
C4U U112C | 1.38
C4U C40U | -1.42
C4G U112A | -0.309
C4G U112C | -0.0354
C4A G93C A111U | -4.69

Variant | polymerase ribozyme fitness (log ratio)
A5C C62U C72G C101G U106G U129C | -5.17
A5U C11G A29U | -3.66
A5G C13U G36C C62U C85A U112A G117U | -1.72
C4U G44A C73U A75U C94A | -2.78
C4G G45A C114U | -4.45
A5C C64U G77U G110A | -3.72
A5U G36U | -1.3
C4U C15U A43U A46U | -3.46
C4G U87A | -2.92
C4G G61C | -2.88
A5C A37G C88A | -3.94
A5U G39U | -1.13
C4G C73U | -1.69
C4A G61A U78A G128U | -1.35
C4G C101A | -2.61
A5G C8U U54A A111U | -2.21
C4U U9C A41U | -0.927
A5U C8G C15A A41U G48A C49U G113A U129C | -5.44
A5G G77U G113U G122C | -3.27
C4G C13A C89A U130C | -3.33
C4G G63U | -1.88
C4U C98U G113U | -3.82
A5U A37G C79G | -1.97
C4U A43C U125A | -3.11

Variant | polymerase ribozyme fitness (log ratio)
C4U U38G U112A | -0.207
C4U C56A | -0.607
C4U C11G C49U G51A C80U C94G | -2.25
A5G G71A | -0.188
A5U A29U | -1.95
A5U A18U C94G A105G C123G | -6.51
A5C U14A A46U | -4.39
A5C C56A | -0.668
C4U C31U G61U C98G C101A C114U | -6.59
C4G G48U C70U | -3.27
C4U C101G | -2.06
C4U C20A G120U | -3.69
C4G U78G C80U | -1.48
A5U G61C C88A | -2.27
A5C G42U G61C U78G C80A A84U C104G G113C A119U U125C U133A | -7.58
A5G G60C | 0.0339
A5C C53A G71U C98U U112A G120U | -6.47
A5U A41U G120C | -1.47
A5C U14C U54A C88U C124A | 1.25
A5U G52U U54A | -1.51
C4U C11A C13U A16C U30G C49A C64G C102G U112G C115A | -7.83
A5G C22A A119G | -4.13
C4G G69C G127A | -2.67
A5C C89U | -0.689

Variant | polymerase ribozyme fitness (log ratio)
A5C A118G | -0.499
C4U U9G U54C C76A | -0.732
C4U G52C G63A G110A | -4.4
A5G A95U A121C G128A U130C | -0.519
A5G G47U A50C C62U A105C | -6.17
C4G G44C | -2.96
C4G U129C | -1.99
A5G U9G C12A U78C G93A | -0.124
A5U C70A | -2.56
A5U C70G | -2.83
C4U G42A C114G | -3.21
C4U A121U | 2.23
A5U C13A C28U C49U C56U G120C G135U | -5.49
A5C C8U C34A A75U C79U C101G | -3.24
A5G C15U G48U C104U C124A | -0.12
C4G G39A C40U G93A C102A | -3.57
A5U G39C A105U | -3.56
C4G U7G U55A C99U U112G U132C | -4.94
A5U C11U U54A C89A | -2.83
A5G G93A | -1.17
A5G C94A U129G | -1.49
C4U A26G A41U C72U U87G A111C | -4
A5U C11G C12U G61U A111C G113A | -4.88
C4G C15A A16U C53A U78C C115U | -3.67

Variant | polymerase ribozyme fitness (log ratio)
C4U C11A | -1.89
A5C C64U | -0.365
C4U G10U G51U C79G | -3.58
A5G C12A C73A | -0.594
A5G U109G | -4.99
A5C U7A C8A C80U | -1.09
C4G G44A G60C A111G | -3.78
C4G C86A | -2.95
A5U G47U A121U C124U | 0.495
A5C G44U G77U | -2.37
C4U U14A G69A C101U | -5.32
A5U C53U U92A G113U | -4.65
A5U C28G U96A C114U | -5.96
A5U G60C C124U | -0.742
A5U A91C U96G A121G | -0.932
C4G U9G G23A G113C | -4.79
C4G A26G U78C C99U C114G U132C | -5.4
A5C C13U G44C G48U C115U | -3.4
A5G C53A G61A C101U | 0.0588
C4U G60C A83U A84C C86A | -2.24
A5C U9G C15G A43U A95U G110U | -4.99
A5C G107A | -5.67
C4G U9A C56G U112A G117A G120C | -6.24
